Results reported in article PMC11194062, “The clade-specific target recognition mechanisms of plant RISCs”.

Tests used:
AGO9 D632A = target: T1, AGO9 D632A (Arabidopsis thaliana, UniProt Q84VQ0 1-896, D632A); experiment: filter binding; 100 mM KOAc, 18 mM HEPES pH 7.4, 3 mM Mg(OAc)2, 5 mM DTT, 0.01% IGEPAL CA-630, 0.01 mg/ml yeast tRNA; 20 pM target; 25 C, 1 h; details: protein: ivt; tags: N-terminal 3xFLAG-SUMO, removed by SUMOstar elution; label: target 3' 32P-cordycepin; target 28 nt
T1 sequence: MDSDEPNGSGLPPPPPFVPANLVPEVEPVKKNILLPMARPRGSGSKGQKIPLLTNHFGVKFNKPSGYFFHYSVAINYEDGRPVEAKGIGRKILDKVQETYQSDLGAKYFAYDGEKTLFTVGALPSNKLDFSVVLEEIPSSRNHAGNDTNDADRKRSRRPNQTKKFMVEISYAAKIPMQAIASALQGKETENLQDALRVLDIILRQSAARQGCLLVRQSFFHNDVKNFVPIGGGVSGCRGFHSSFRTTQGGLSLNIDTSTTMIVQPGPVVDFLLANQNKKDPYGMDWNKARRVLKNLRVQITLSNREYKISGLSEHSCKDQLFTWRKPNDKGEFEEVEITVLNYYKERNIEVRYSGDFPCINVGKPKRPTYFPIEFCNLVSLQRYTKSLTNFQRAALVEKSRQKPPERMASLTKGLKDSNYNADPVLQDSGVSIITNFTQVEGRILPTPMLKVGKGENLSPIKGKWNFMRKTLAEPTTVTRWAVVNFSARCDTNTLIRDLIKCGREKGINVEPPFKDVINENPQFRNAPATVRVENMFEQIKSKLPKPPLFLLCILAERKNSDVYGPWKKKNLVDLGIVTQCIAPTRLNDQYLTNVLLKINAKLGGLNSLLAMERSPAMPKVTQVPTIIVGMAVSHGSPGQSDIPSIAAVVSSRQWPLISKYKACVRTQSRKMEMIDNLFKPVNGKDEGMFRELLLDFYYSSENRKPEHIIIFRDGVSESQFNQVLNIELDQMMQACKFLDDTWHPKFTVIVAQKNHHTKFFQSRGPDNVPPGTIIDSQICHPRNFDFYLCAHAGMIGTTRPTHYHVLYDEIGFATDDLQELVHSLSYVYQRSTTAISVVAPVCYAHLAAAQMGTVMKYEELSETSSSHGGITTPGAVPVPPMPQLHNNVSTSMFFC

AGO6 D623A = target: T2, AGO6 D623A (Arabidopsis thaliana, UniProt O48771 1-878, D623A); experiment: as above; details: protein: ivt; tags: N-terminal 3xFLAG-SUMO, removed by SUMOstar elution; label: target 3' 32P-cordycepin; target 28 nt
T2 sequence: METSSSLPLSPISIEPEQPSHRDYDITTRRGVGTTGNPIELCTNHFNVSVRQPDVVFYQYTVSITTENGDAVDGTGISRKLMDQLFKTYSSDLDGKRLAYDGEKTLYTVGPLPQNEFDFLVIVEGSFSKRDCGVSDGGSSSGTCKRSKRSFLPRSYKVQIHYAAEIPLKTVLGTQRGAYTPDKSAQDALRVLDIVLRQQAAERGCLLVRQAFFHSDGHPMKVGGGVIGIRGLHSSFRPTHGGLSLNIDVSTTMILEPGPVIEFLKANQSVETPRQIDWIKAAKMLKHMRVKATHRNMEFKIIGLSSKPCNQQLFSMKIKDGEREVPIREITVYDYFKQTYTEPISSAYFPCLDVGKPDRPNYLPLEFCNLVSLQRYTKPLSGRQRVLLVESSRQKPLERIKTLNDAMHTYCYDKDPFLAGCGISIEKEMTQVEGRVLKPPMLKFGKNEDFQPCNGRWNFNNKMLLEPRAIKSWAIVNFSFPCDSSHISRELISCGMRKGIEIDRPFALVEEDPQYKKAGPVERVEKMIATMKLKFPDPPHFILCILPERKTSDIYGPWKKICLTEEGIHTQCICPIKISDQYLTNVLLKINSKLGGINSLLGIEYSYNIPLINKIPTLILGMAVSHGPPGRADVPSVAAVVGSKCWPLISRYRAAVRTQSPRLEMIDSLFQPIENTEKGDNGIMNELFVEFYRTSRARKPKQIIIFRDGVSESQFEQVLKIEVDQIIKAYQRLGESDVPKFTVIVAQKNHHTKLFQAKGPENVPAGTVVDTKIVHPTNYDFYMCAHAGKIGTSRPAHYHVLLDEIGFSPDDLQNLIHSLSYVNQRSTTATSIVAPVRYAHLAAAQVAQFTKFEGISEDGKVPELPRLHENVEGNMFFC

AGO4 D660A [1] = target: T3, AGO4 D660A (Arabidopsis thaliana, UniProt Q9ZVD5 1-924, D660A); experiment: as above; details: protein: ivt, tags: N-terminal 3xFLAG-SUMO, removed by SUMOstar elution, label: target 3' 32P-cordycepin; for Kd: target 28 nt
T3 sequence: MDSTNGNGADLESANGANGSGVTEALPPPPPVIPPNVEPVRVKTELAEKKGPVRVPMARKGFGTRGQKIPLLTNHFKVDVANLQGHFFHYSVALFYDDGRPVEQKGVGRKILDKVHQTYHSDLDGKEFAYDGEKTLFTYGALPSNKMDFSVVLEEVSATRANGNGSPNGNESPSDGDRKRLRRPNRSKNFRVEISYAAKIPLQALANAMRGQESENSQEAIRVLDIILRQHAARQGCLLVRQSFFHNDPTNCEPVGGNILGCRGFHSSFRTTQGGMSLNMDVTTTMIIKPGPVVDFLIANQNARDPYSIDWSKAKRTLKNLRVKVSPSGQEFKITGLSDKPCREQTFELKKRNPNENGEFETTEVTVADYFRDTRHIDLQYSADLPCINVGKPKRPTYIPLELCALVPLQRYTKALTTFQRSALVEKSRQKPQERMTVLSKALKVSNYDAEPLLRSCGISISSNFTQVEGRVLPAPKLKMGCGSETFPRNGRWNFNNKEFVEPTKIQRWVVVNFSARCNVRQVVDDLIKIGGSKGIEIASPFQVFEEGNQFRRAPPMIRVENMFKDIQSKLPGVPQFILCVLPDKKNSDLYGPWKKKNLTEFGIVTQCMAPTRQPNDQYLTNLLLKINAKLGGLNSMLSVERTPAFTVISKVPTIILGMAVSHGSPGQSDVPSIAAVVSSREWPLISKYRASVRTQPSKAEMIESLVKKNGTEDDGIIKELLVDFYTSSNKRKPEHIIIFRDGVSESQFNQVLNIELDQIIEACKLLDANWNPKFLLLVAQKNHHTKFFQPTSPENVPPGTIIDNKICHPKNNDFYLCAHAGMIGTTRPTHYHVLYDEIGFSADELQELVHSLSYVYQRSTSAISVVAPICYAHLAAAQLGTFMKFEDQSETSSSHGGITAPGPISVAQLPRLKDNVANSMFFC

AGO4 D660A [2] = target: T3, AGO4 D660A; experiment: filter binding; did not bind at all; 100 mM KOAc, 18 mM HEPES pH 7.4, 3 mM Mg(OAc)2, 5 mM DTT, 0.01% IGEPAL CA-630, 0.01 mg/ml yeast tRNA; 20 pM target; 25 C, 1 h; details: protein: ivt; tags: N-terminal 3xFLAG-SUMO, removed by SUMOstar elution; label: target 3' 32P-cordycepin; only g2-g8 paired
AGO4 D660A [3] = target: T3, AGO4 D660A; experiment: filter binding; 100 mM KOAc, 18 mM HEPES pH 7.4, 3 mM Mg(OAc)2, 5 mM DTT, 0.01% IGEPAL CA-630, 0.01 mg/ml yeast tRNA; 20 pM target; 25 C, 1 h; details: protein: ivt; tags: N-terminal 3xFLAG-SUMO, removed by SUMOstar elution; label: target 3' 32P-cordycepin; mismatch at g20-g21

B1: 24-nt 5'A guide / t1U RNA (dsRNA)
RNA 1: AGAGGUAGAUCCUUGUAUAGUCUC
RNA 2: ACGAGACUAUACAAGGAUCUACCUCUCAA
modifications: guide 3' 2'-O-methyl
Work on B1 yielded a Kd (AGO9 D632A) of 12.7 pM, a Kd (AGO6 D623A) of 50.4 pM and a Kd (AGO4 D660A [1]) of 1.71 pM.

B2: 24-nt 5'A guide / mm23-24 DNA (DNA:RNA)
RNA: AGAGGUAGAUCCUUGUAUAGUCUC
DNA: ACCTGACTATACAAGGATCTACCTCTCAA
modifications: guide 3' 2'-O-methyl
B2: binds (AGO4 D660A [1]; mismatch at g23-g24).

B3: 24-nt 5'A guide / t1T DNA (DNA:RNA)
RNA: AGAGGUAGAUCCUUGUAUAGUCUC
DNA: ACGAGACTATACAAGGATCTACCTCTCAA
modifications: guide 3' 2'-O-methyl
In the case of B3, the Kd (AGO9 D632A) is reported as 2.12 pM, the Kd (AGO6 D623A) is reported as 7.3 pM and the Kd (AGO4 D660A [1]) is reported as 0.93 pM.

B4: 24-nt 5'A guide / mm20-21 DNA (DNA:RNA)
RNA: AGAGGUAGAUCCUUGUAUAGUCUC
DNA: ACGAGTGTATACAAGGATCTACCTCTCAA
modifications: guide 3' 2'-O-methyl
B4: binds (AGO4 D660A [1]; mismatch at g20-g21).

B5: 24-nt 5'A guide / seed-only (2-8) DNA (DNA:RNA)
RNA: AGAGGUAGAUCCUUGUAUAGUCUC
DNA: ACCTCTGATATGTTCCTACTACCTCTCAA
modifications: guide 3' 2'-O-methyl
B5: no binding (AGO4 D660A [2]).

B6: 24-nt 5'A guide / seed-only (2-8) RNA (dsRNA)
RNA 1: AGAGGUAGAUCCUUGUAUAGUCUC
RNA 2: ACCUCUGAUAUGUUCCUACUACCUCUCAA
modifications: guide 3' 2'-O-methyl
B6: no binding (AGO4 D660A [2]).

B7: 24-nt 5'A guide / mm6-7 DNA (DNA:RNA)
RNA: AGAGGUAGAUCCUUGUAUAGUCUC
DNA: ACGAGACTATACAAGGATCATCCTCTCAA
modifications: guide 3' 2'-O-methyl
B7: binds (AGO4 D660A [1]; mismatch at g6-g7).

B8: 24-nt 5'A guide / mm20-21 RNA (dsRNA)
RNA 1: AGAGGUAGAUCCUUGUAUAGUCUC
RNA 2: ACGAGUGUAUACAAGGAUCUACCUCUCAA
modifications: guide 3' 2'-O-methyl
B8 was tested, and the binding signal (AGO4 D660A [3]) was ~10 fold lower affinity than t1U.

B9: 24-nt 5'A guide / mm8-9 DNA (DNA:RNA)
RNA: AGAGGUAGAUCCUUGUAUAGUCUC
DNA: ACGAGACTATACAAGGAAGTACCTCTCAA
modifications: guide 3' 2'-O-methyl
B9: binds (AGO4 D660A [1]; mismatch at g8-g9).
